Measurements as given in article PMC5500810, “Identification and characterization of Nanobodies targeting the EphA4 receptor” (The Journal of Biological Chemistry, 2017).
Positions count from the first letter of the chain named. Like-named read-outs stand apart in the source and are kept apart here.

What was measured:
[1] = target: T1, EphA4 ligand-binding domain (human, amino acids 22-203) (human, UniProt P54764, biotin on primary amines (EZ link NHS biotin) in the AlphaScreen assays only); experiment: SPR; Biacore T200; EphA4 LBD amine-coupled to CM5 chip (300 RU); Nbs (1-300 nM) as analyte, 60 μl/min; 10 mM Hepes, 150 mM NaCl, 3 mM EDTA, 0.01 mM Surfactant P-20, pH 7.35; two-state model; conditions: both partners purified
T1 construct: cloned from the EphA4 Human cDNA ORF clone (Origene); His6 tag removed with murine caspase-3; Amine-coupled to the chip in SPR; biotinylated in AlphaScreen; also called EphA4 LBD; hEphA4 LBD; source: E. coli BL21 codon+ pICA2, purified (Ni-Sepharose, Source 15Q, Superdex 75); not shown: His6, N-terminal, cleaved
T1 sequence (P54764 22-203): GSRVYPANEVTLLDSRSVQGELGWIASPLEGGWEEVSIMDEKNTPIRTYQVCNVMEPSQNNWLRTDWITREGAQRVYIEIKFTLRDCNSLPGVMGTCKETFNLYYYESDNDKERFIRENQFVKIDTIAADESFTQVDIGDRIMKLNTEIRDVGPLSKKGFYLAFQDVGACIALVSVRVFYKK

[2] = target: T2, mouse EphA4-Fc (R&D Systems) (mouse, UniProt Q03137); experiment: co-IP; Nb on anti-HA magnetic Dynabeads used to capture recombinant EphA4; EphA4 detected with N-terminal anti-EphA4 antibody; conditions: both partners purified
T2 construct: EphA4, mouse; the results call it 'full-length recombinant' receptor, the methods an EphA4-hFc fusion protein from R&D Systems; also called mEphA4-Fc; EphA4-hFc (mouse); source: bought: R&D Systems
T2 sequence (Q03137 20-547): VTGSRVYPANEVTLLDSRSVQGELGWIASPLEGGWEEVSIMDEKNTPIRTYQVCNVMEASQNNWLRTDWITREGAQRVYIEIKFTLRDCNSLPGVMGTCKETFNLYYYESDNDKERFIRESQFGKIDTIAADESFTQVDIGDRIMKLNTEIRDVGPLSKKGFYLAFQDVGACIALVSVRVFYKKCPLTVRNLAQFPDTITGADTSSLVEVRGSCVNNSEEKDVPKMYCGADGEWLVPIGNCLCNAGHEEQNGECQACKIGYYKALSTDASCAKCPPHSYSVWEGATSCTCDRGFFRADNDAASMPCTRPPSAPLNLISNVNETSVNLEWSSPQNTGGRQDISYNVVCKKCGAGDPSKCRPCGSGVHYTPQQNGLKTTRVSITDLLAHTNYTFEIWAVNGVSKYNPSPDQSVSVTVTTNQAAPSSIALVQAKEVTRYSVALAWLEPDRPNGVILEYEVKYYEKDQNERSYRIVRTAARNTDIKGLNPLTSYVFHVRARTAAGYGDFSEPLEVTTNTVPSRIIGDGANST

[3] = target: T3, human EphA7 (recombinant, EphA7/ephrin-A5 competition assay) (Homo sapiens, UniProt Q15375); experiment: AlphaScreen or HTRF; competition: human EphA7 (3 nM) preincubated 1 h with increasing Nb, then biotinylated His-tagged human ephrin-A5 (30 nM); anti-IgG acceptor and streptavidin donor beads; 50 mM Hepes, 100 mM NaCl, 0.1% Triton, 0.1% BSA; conditions: both partners purified
T3 construct: EphA7, human; Probably an Fc chimera of the extracellular domain, since anti-IgG acceptor beads were used
T3 sequence (Q15375 28-998): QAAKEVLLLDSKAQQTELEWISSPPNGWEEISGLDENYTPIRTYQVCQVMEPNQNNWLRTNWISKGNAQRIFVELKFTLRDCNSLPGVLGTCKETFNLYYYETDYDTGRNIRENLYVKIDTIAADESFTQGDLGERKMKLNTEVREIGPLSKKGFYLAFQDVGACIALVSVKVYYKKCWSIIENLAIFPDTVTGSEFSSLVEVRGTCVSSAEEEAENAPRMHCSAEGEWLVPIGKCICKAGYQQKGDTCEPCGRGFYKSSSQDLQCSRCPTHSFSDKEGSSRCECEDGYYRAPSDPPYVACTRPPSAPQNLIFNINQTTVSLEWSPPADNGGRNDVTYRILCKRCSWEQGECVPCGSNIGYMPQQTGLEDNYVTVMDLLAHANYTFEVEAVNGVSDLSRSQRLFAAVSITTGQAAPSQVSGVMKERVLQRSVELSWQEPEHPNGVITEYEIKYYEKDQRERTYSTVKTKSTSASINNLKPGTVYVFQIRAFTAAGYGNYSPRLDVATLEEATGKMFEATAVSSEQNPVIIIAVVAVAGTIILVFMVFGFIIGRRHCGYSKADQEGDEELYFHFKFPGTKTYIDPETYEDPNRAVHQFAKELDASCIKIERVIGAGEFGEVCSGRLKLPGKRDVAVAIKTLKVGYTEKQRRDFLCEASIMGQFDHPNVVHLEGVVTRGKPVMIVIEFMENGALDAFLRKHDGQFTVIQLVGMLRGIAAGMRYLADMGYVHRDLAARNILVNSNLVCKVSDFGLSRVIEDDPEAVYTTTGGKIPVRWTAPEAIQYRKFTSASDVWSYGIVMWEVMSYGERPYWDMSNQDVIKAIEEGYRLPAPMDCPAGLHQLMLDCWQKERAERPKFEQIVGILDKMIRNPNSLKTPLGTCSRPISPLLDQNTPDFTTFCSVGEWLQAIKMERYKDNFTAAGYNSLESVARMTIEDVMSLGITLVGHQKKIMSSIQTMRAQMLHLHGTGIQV

[4] = target: T1, EphA4 ligand-binding domain (human, …); experiment: cell-based or functional assay
[5] = target: T1, EphA4 ligand-binding domain (human, …)
[6] = target: T4, mouse recombinant EphA8 (Fc-tagged; R&D Systems) (mouse, UniProt O09127); experiment: AlphaScreen or HTRF; biotinylated Nbs (100 nM) with subhooking concentrations (10-100 nM) of mouse Fc-tagged Eph receptors; anti-IgG AlphaLISA acceptor and streptavidin donor beads; 50 mM Hepes, 100 mM NaCl, 0.1% Triton, 0.1% BSA; room temperature; conditions: both partners purified
T4 construct: EphA8, mouse, recombinant, Fc-tagged; source: bought: R&D Systems
T4 sequence (O09127 27-541): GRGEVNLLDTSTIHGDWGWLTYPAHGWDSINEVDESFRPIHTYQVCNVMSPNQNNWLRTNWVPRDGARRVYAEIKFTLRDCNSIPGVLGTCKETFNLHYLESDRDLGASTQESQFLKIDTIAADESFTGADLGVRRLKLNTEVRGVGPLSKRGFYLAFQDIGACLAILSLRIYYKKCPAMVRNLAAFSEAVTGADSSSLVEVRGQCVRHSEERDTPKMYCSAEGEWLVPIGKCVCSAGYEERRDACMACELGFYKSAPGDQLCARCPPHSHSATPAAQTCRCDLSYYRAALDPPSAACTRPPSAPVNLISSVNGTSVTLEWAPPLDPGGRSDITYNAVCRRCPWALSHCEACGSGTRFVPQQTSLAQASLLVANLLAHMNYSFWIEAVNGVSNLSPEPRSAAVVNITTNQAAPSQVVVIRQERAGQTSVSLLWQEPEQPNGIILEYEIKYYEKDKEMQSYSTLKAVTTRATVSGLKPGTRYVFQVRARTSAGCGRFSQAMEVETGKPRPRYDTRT

[7] = target: T5, mouse recombinant EphA3 (Fc-tagged; R&D Systems) (mouse, UniProt P29319); experiment: as above; conditions: both partners purified
T5 construct: EphA3, mouse, recombinant, Fc-tagged; source: bought: R&D Systems
T5 sequence (P29319 21-540): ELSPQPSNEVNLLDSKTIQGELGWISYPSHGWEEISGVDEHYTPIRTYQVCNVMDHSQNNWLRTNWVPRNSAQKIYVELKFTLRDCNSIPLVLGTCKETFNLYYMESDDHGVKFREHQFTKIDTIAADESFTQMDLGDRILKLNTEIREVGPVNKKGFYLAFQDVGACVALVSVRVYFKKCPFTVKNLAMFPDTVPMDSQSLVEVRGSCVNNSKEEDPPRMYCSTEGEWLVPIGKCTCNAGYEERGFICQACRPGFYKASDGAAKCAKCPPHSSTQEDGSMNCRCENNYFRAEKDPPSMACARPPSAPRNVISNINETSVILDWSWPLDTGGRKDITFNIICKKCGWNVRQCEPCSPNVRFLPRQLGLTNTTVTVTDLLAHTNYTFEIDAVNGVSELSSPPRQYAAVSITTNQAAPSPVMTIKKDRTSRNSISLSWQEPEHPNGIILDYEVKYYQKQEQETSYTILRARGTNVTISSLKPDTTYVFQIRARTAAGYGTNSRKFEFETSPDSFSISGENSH

[8] = target: T6, mouse recombinant EphA7 (Fc-tagged; R&D Systems) (mouse, UniProt Q61772); experiment: as above; conditions: both partners purified
T6 construct: EphA7, mouse, recombinant, Fc-tagged; source: bought: R&D Systems
T6 sequence (Q61772 28-555): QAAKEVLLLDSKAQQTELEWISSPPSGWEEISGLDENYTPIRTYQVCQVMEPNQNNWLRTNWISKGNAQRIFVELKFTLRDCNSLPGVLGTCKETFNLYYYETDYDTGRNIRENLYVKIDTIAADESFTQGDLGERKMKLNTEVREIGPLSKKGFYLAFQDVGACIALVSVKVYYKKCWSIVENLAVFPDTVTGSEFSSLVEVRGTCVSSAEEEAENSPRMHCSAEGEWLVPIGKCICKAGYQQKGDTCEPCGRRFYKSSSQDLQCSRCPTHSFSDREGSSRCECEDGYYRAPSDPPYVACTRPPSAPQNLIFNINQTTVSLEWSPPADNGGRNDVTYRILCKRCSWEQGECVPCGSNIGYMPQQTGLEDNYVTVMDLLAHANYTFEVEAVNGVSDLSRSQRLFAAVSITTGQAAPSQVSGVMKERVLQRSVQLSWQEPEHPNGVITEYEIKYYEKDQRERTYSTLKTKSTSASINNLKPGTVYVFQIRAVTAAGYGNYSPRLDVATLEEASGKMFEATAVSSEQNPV

[9] = target: T7, mouse recombinant EphA6 (Fc-tagged; R&D Systems) (mouse, UniProt Q62413); experiment: as above; conditions: both partners purified
T7 construct: EphA6, mouse, recombinant, Fc-tagged; source: bought: R&D Systems
T7 sequence (Q62413 23-549): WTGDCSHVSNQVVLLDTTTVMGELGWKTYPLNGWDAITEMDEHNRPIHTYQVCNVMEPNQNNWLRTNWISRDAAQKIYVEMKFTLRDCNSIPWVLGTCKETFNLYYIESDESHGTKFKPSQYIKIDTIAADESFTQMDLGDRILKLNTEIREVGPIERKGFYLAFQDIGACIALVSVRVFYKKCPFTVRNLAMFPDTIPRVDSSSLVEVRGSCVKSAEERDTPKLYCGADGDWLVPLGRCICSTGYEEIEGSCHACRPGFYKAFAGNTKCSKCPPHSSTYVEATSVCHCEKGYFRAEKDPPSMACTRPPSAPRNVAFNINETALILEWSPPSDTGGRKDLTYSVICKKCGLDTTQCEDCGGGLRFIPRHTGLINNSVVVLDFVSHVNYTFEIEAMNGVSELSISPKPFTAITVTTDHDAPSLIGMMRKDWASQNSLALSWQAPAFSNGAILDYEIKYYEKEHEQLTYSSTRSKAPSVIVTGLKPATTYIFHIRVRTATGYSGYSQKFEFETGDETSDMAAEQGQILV

[10] = target: T8, human EphA4-Fc (R&D Systems) (Homo sapiens, UniProt P54764); experiment: co-IP; Nb on anti-HA magnetic Dynabeads used to capture recombinant EphA4; EphA4 detected with N-terminal anti-EphA4 antibody; conditions: both partners purified
T8 construct: EphA4, human; the results call it 'full-length recombinant' receptor, the methods an EphA4-hFc fusion protein from R&D Systems; also called hEphA4-Fc; EphA4-hFc; source: bought: R&D Systems
T8 sequence (P54764 20-547): as the sequence (Q03137 20-547) above, with A59P, S121N, G124V, Q250R, N251S, S270T, R378K, S406N counted along it

[11] = target: T8, human EphA4-Fc (R&D Systems); experiment: co-IP; 2.5 μg recombinant mouse or human EphA4 protein (or recombinant ephrin-B2 as negative control) on protein G magnetic Dynabeads, 1 μg Nb overnight at 4 °C, PBS washes; Nb detected with anti-HA; conditions: both partners purified
[12] = target: T2, mouse EphA4-Fc (R&D Systems); experiment: SPR; Biacore T200; EphA4-hFc (human or mouse) captured (~500 RU) on anti-human Fc antibody; Nbs as analyte; 10 mM Hepes, 150 mM NaCl, 3 mM EDTA, 0.01 mM Surfactant P-20, pH 7.35; 1:1 or two-state model; conditions: both partners purified
[13] = target: T8, human EphA4-Fc (R&D Systems); experiment: as above; conditions: both partners purified
[14] = target: T9, ephrin-B2 (Fc-tagged; R&D Systems) (UniProt P52799); experiment: co-IP; 2.5 μg recombinant mouse or human EphA4 protein (or recombinant ephrin-B2 as negative control) on protein G magnetic Dynabeads, 1 μg Nb overnight at 4 °C, PBS washes; Nb detected with anti-HA; conditions: both partners purified
T9 construct: ephrin-B2, recombinant, Fc-tagged (R&D Systems); also called recombinant ephrin-B2; ephrin-B2 ligand; source: bought: R&D Systems
T9 sequence (P52799 28-229): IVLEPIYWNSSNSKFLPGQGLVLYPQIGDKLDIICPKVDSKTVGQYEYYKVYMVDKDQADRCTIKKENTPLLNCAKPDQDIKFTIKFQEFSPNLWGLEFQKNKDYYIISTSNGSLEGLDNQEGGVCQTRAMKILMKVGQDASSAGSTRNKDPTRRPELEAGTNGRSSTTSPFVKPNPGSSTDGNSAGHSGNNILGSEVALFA

[15] = target: T2, mouse EphA4-Fc (R&D Systems); experiment: as above; conditions: both partners purified

B1: Nb 19 (VHH)
VHH: QVQLQESGGGLVQPGGSLRLSCAATGRNFNAYSIAWFRQAPGKEREFVASINWSGSNTYYAVAVKGRFTTSRDNAKNTVYLQMNSLKPEDTAVYYCNAFAAGWGPDYWGQGTQVTVSS
notes: Cloned in the phagemid pMECS; Same clonal group as Nb 57; also called Nanobody 19; source: E. coli WK6, periplasmic extract, purified (His GraviTrap, Sephadex G25)
Question: Does B1 bind [1]?
Answer: binds

B2: Nb 39 (VHH)
VHH: QVQLQESGGGLVQPGGSLKLSCAASGFTFSTYAMSWVRQAPGKGLEWVSRINSGGGYTWHADSVKGRFTISRDNARNTVYLQMNNLKPEDTAVYYCTNLNTGWRPEYWGQGTQVTVSS
notes: Cloned in the phagemid pMECS; also called Nanobody 39; source: E. coli WK6, periplasmic extract, purified (His GraviTrap, Sephadex G25)
Question: Does B2 bind [2]?
Answer: binds

Question: Does B2 bind [3]?
Answer: binds

Question: And the “IC50 of inhibition of ephrin-A1-induced EphA4 phosphorylation (PathHunter assay, EphA4-expressing U2OS cells); blocks ephrin-A1 with EphA4” value [4]?
Answer: 170 nM

B3: Nb 10 (VHH)
VHH: QVQLQESGGGLVQAGGSLRLSCAASGRTFSSYAMGWFRQAPGTKREMIAAVTKAGTTSYANPVKGRFTISRDDAKNMVYLQMNNLKPEDSAVYYCNAISPLWDEYDFWGPGTQVTVSS
Question: Does B3 bind [5]?
Answer: binds

B4: Nb 53 (VHH)
VHH: B3 VHH with L11V, T28A, K53R, S58N
notes: Cloned in the phagemid pMECS; Same clonal group as Nb 31, 50 and 10; also called Nanobody 53; source: E. coli WK6, periplasmic extract, purified (His GraviTrap, Sephadex G25)
Question: Does B4 bind [2]?
Answer: binds

Question: Does B4 bind [3]?
Answer: binds

Question: And the “IC50 of inhibition of ephrin-A1-induced EphA4 phosphorylation (PathHunter assay, EphA4-expressing U2OS cells); blocks ephrin-A1 with EphA4” value [4]?
Answer: 261 nM

B5: Nb 50 (VHH)
VHH: B3 VHH with S30N, M34E, G35A, T43K, K44E, S58N
notes: Cloned in the phagemid pMECS; Same clonal group as Nb 31, 10 and 53; also called Nanobody 50; source: E. coli WK6, periplasmic extract, purified (His GraviTrap, Sephadex G25)
Question: Does B5 bind [6]?
Answer: binds

Question: Does B5 bind [7]?
Answer: binds

Question: Does B5 bind [8]?
Answer: binds

Question: Does B5 bind [9]?
Answer: binds

Question: Does B5 bind [1]?
Answer: binds

Question: Does B5 bind [2]?
Answer: binds

Question: Does B5 bind [10]?
Answer: binds

B6: Nb 31 (VHH)
VHH: B3 VHH with R27F, T28A, F29S, S30D, S31A, M34I, T56A, S58N
notes: Cloned in the phagemid pMECS; Same clonal group as Nb 50, 10 and 53; also called Nanobody 31; source: E. coli WK6, periplasmic extract, purified (His GraviTrap, Sephadex G25)
Question: Does B6 bind [1]?
Answer: binds

Question: Does B6 bind [2]?
Answer: binds

Question: Does B6 bind [11]?
Answer: binds

B7: Nb 16 (VHH)
VHH: QVQLQESGGGLVQPGGSLRLSCAASGFTFSNYAMSWVRQAPGKGLEWVSGINKGGGSAYYSDSVKGRFTISRDNAENTLYLQMNNLKPEDTAVYYCVIPWGLGSNEYDYWGQGTQVTVSS
Question: Does B7 bind [5]?
Answer: binds

B8: Nb 28 (VHH)
VHH: QVQLQESGGGLVQAGGSLRLSCAASGFTFSSNWMYWVRQAPGKGLEWVSGINSGGSSTYYSDSVKGRFTISRDNAKNTLYLQMNSLKPEDTAVYYCAKYSGSYYYRRGPGTQVTVSS
Question: Does B8 bind [5]?
Answer: binds

B9: Nb 34 (VHH)
VHH: QVQLQESGGGLVQAGGSLRLSCAASGFTFSSYAMSWVRQAPGKGLEWVSGINTGGGSTYYADSVKGRFTISRDNAKNTLYLQMNSLKSEDTAVYYCVPRVGVLEGLTSFGSWGQGTQVTVSS
notes: Cloned in the phagemid pMECS; Same clonal group as Nb 47; also called Nanobody 34; source: E. coli WK6, periplasmic extract, purified (His GraviTrap, Sephadex G25)
Question: Does B9 bind [1]?
Answer: no binding (tested: 1–300 nM)

B10: Nb 47 (VHH)
VHH: B9 VHH with A14P
notes: Cloned in the phagemid pMECS; Same clonal group as Nb 34; also called Nanobody 47; source: E. coli WK6, periplasmic extract, purified (His GraviTrap, Sephadex G25)
Question: Does B10 bind [1]?
Answer: no binding (tested: 1–300 nM)

B11: Nb 90 (VHH)
VHH: QVQLQESGGGLVQPGGSLRLSCAASGFTFSSHWIYWVRQAPGKQRELVAAITSGGSTNYADSVKGRFTISRDNAKNTVFLQMNSLKPEDTAVYYCNAWGFLLGDIEDYWGQGTQVTVSS
Question: Does B11 bind [5]?
Answer: binds

B12: Nb 60 (VHH)
VHH: B11 VHH with S31R, H32Y, S53R, G54N, S56V, R71T, N73D, A74N, F79Y, P87S
notes: Cloned in the phagemid pMECS; Same clonal group as Nb 90; also called Nanobody 60; source: E. coli WK6, periplasmic extract, purified (His GraviTrap, Sephadex G25)
Question: Does B12 bind [1]?
Answer: binds

Question: Does B12 bind [12]?
Answer: binds

Question: Does B12 bind [13]?
Answer: binds

Question: Does B12 bind [14]?
Answer: binds

B13: Nb 71 (VHH)
VHH: QVQLQESGGGLVQPGGSLRLSCAASGFTFSSYWMYWVRQTPGKGLEWVSGINSPGSITGYADSVKGRFTISRDNAKNTLYLQMNSLKSDDTAVYYCARDLTYGGNSLRYIERGQGTQVTVSS
Question: Does B13 bind [5]?
Answer: binds

B14: Nb 57 (VHH)
VHH: QVQLQESGGGLVQPGGSLRLSCAASGFTFSSYYMYWVRQAPGKGLEWVSTINTGGGSTNYADSVKGRFIISRDNAKNTVYLQMNSLKPEDTAVYYCNAFAAGWGPDYWGQGTQVTVSS
notes: Cloned in the phagemid pMECS; Same clonal group as Nb 19; also called Nanobody 57; source: E. coli WK6, periplasmic extract, purified (His GraviTrap, Sephadex G25)
Question: Does B14 bind [7]?
Answer: binds

Question: Does B14 bind [8]?
Answer: binds

Question: Does B14 bind [1]?
Answer: binds

Question: Does B14 bind [10]?
Answer: binds

Question: Does B14 bind [15]?
Answer: binds

B15: Nb 22 (VHH)
VHH: QVQLQESGGGPVRAGESLRLSCTASGRAFSTYTMGWFRQAPGKERELVAVITPGGNTNYADSVKGRFTISRDDAKNTVYLQMNSLKPVDTAVYYCHVVLAVVGTGNEYDVWGQGTQVTVSS
notes: Cloned in the phagemid pMECS; also called Nanobody 22; source: E. coli WK6, periplasmic extract, purified (His GraviTrap, Sephadex G25)
Question: What does the source list for B15?
Answer: binding result [1]: binds; fold difference in binding affinity between human and mouse EphA4 [12]: 2 fold; binding result [11]: binds
